# Data: patent publication US11214614B2, “LTBP complex-specific inhibitors of TGFβ and uses thereof” (Scholar Rock, Inc., priority 2019, dated 2022)
# Target: huLTBP1 proTGFβ1 (Homo sapiens, UniProt P01137+Q14766)
# Test: SPR (Biacore 8K) monovalent binding kinetics of Fabs, biotinylated antigen captured
# Design: biotin (complex biotinylated)
# Conditions: Fab, huLTBP1 proTGFβ1; SR-AB42-HuFab average of five, SR-AB63-HuFab average of four replicate experiments
# Protocol: A Biacore 8K system was employed to determine the monovalent binding affinity and the kinetic parameters for antigen binding of test antibodies. Association and dissociation kinetics of Fab fragments SR-AB42-HuFab, SR-AB63-HuFab and SR-AB43-HuFab to antigen complexes were measured, and resulting ka, kd and KD are provided below. Briefly, the binding kinetics were evaluated by surface plasmon resonance using Biacore 8K (GE Healthcare). Biotinylated capture antigens were immobilized to the chip (10 nM, ˜200 RU loading). A Biotin CAPture sensor chip was used to capture the biotinylated antigens. Fabs at 10, 5, 2.5, 1.25, and 0.6 nM concentrations were injected over the captured antigens. 0 nM was used as a reference. Affinities of LTBP antibodies to GARP and LRRC33 were confirmed using higher concentration of Fabs (100, 50, 25, 12.5, 6.25 nM). 0 nM was used as a reference. Multi-cycle kinetics was employed where each analyte concentration was injected in a separate cycle and the sensor chip surface was regenerated after each cycle. All the assays were carried out in freshly prepared 1×HBS-EP+buffer (10 mM HEPES, 150 mM NaCl, 3 mM EDTA, 0.05% Tween20, pH 7.4). Data were fit globally to a 1:1 binding model to obtain the kinetic parameters. The sensorgram for 0 nM analyte concentration was used as reference.
# • 96 well plates—Greinerbio-one REF 650101 • Microplate Foils—GE Healthcare—CAT #28-9758-16 • Biotin CAPture Kit GE Healthcare product number 28920233 • Biacore running buffer—supplied as a 20× solution, diluted in Milli-Q water, TEKnova CAT #H8022 Method:
# These experiments were performed using the Biacore 8K using the method “multi-cycle kinetics/affinity using Biotin CAPture kit.”
# Data collection rate was set to 10 Hz and the Biotin CAPture step was performed for 300 seconds with a flow rate of 2 μL/minute. The Biotin CAPture reagent was used after a 1:5 dilution in 1× Biacore running buffer. Biotinylated ligands (the various complexes of TGFβ1) were utilized at a concentration of 10 nM and were immobilized to the sensor chip for 180 seconds with a flow rate of 10 μL/minute. The analytes, which are each of the Fabs, were tested at 10, 5, 2.5, 1.25, and 0.625 nM with a 0 nM control included. Analyte contact time was 120 seconds and the dissociation time was 900 seconds. The regeneration cycle utilized was 120 seconds with a flow rate of 10 μL/minute.
# The evaluation method used was “multi-cycle affinity using capture” and a 1:1 binding model was used. […] Global fits were utilized for every KD determination.
# Chain of huLTBP1 proTGFβ1 (P01137 30-390): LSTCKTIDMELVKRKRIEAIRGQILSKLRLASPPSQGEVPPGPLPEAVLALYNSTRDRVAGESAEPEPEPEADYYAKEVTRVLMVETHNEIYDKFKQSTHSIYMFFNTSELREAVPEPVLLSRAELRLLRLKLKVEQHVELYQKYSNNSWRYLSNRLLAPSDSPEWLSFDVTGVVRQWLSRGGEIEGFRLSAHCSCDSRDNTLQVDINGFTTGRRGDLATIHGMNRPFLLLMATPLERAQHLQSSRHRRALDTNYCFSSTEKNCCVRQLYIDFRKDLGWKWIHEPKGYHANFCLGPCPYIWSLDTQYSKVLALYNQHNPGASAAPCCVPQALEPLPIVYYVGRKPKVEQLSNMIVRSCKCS
# Chain of huLTBP1 proTGFβ1 (Q14766 347-1721 limits assumed): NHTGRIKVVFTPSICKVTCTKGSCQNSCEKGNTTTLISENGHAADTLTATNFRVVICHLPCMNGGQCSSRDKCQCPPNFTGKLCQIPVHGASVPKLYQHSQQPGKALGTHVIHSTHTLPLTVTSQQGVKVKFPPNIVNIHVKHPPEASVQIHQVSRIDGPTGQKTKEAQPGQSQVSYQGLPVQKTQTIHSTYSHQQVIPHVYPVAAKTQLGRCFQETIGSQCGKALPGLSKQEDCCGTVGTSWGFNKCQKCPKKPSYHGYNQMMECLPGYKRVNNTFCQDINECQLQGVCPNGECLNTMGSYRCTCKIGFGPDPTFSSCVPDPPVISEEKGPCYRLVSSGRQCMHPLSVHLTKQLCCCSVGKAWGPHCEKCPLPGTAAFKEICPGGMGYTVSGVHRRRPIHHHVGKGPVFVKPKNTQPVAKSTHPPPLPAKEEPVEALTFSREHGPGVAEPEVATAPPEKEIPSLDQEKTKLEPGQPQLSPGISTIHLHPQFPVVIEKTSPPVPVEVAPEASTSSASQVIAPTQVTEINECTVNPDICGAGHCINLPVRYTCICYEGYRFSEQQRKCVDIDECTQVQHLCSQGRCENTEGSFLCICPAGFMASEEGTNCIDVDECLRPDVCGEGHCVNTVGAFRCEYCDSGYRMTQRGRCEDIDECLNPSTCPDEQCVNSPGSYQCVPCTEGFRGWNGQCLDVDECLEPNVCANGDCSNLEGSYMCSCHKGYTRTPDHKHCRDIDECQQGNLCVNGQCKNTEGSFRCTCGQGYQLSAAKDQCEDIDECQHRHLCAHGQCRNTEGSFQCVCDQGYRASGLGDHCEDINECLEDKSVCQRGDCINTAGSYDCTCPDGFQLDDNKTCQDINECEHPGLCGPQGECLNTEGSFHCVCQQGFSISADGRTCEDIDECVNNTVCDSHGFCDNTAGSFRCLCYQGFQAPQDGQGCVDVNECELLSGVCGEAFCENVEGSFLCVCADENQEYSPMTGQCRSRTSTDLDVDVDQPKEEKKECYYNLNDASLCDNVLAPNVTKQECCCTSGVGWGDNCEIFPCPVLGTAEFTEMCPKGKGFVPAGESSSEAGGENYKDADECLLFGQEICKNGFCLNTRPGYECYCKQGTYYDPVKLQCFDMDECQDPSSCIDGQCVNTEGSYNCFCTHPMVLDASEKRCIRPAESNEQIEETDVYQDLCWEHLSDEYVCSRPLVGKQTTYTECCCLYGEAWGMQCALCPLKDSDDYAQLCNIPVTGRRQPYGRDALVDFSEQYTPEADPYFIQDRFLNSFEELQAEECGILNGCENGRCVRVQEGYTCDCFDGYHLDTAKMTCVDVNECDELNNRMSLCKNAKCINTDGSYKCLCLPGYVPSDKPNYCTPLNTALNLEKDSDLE
Molecule,ka,kd
"SR-AB48-HuFab (antibody, V domains shown) VH: QVQLVESGGGVVQPGRSLRLSCAASGFTFRSYVMHWVRQAPGKGLEWVAVISHEGSGKYYADSVKGRFTISRDNSKNTLYLQMNSLRAEDTAVYYCARPRIAARRGGFGSWGQGTLVTVSS VL: NFMLTQPHSVSESPGKTVTISCTRSSGNIDYNYVQWYQQRPGSSPTTVIYEDNVRPSGVPDRFSGSIDSSSNSASLTISGLKTEDEADYYCQSYDYDTQGVVFGGGTKLTVL",1.76e+06 M⁻¹ s⁻¹,0.000104 s⁻¹
"SR-AB50-HuFab (antibody, V domains shown) VH: QVQLVESGGGVVQPGRSLRLSCAASGFTFRSYVMHWVRQAPGKGLEWVAVISHEGSGKYYADSVKGRFTISRDNSKNTLYLQMNSLRAEDTAVYYCARPRIAARRGGFGTWGQGTLVTVSS VL: NFMLTQPHSVSESPGKTVTISCTRSSGNIDYNYVQWYQQRPGSSPTTVIYEDNVRPSGVPDRFSGSIDSSSNSASLTISGLKTEDEADYYCQSYDSDNQRVVFGGGTKLTVL",3.31e+06 M⁻¹ s⁻¹,0.000182 s⁻¹
"SR-AB52-HuFab (antibody, V domains shown) VH: QVQLVESGGGVVQPGRSLRLSCAASGFTFRSYVMHWVRQAPGKGLEWVAVISHEGSGKYYADSVKGRFTISRDNSKNTLYLQMNSLRAEDTAVYYCARPRIAARRGGFGTWGQGTLVTVSS VL: NFMLTQPHSVSESPGKTVTISCTRSSGNIDYNYVQWYQQRPGSSPTTVIYEDNVRPSGVPDRFSGSIDSSSNSASLTISGLKTEDEADYYCQSYDYDTQGVVFGGGTKLTVL",2.5e+06 M⁻¹ s⁻¹,9.91e-05 s⁻¹
"SR-AB46-HuFab (antibody, V domains shown) VH: QVQLVESGGGVVQPGRSLRLSCAASGFTFRSYVMHWVRQAPGKGLEWVAVISHEGSGKYYADSVKGRFTISRDNSKNTLYLQMNSLRAEDTAVYYCARPRIAARRGGFGSWGQGTLVTVSS VL: NFMLTQPHSVSESPGKTVTISCTRSSGNIDYNYVQWYQQRPGSSPTTVIYEDNVRPSGVPDRFSGSIDSSSNSASLTISGLKTEDEADYYCQSYDSDNQRVVFGGGTKLTVL",2.47e+06 M⁻¹ s⁻¹,0.00011 s⁻¹
"SR-AB49-HuFab (antibody, V domains shown) VH: QVQLVESGGGVVQPGRSLRLSCAASGFTFRSYVMHWVRQAPGKGLEWVAVISHEGSGKYYADSVKGRFTISRDNSKNTLYLQMNSLRAEDTAVYYCARPRIAARRGGFGSWGQGTLVTVSS VL: NFMLTQPHSVSESPGKTVTISCTRSSGNIDYNYVQWYQQRPGSSPTTVIYEDNVRPSGVPDRFSGSIDSSSNSASLTISGLKTEDEADYYCQGYDWDTQGVVFGGGTKLTVL",809000 M⁻¹ s⁻¹,0.000138 s⁻¹
"SR-AB55-HuFab (antibody, V domains shown) VH: QVQLVESGGGVVQPGRSLRLSCAASGFTFRSYVMHWVRQAPGKGLEWVAVISHEGSGKYYADSVKGRFTISRDNSKNTLYLQMNSLRAEDTAVYYCALPRIAARRGGFGSWGQGTLVTVSS VL: NFMLTQPHSVSESPGKTVTISCTRSSGNIDYNYVQWYQQRPGSSPTTVIYEDNVRPSGVPDRFSGSIDSSSNSASLTISGLKTEDEADYYCQSYDYDNQAVVFGGGTKLTVL",862000 M⁻¹ s⁻¹,0.000113 s⁻¹
"SR-AB54-HuFab (antibody, V domains shown) VH: QVQLVESGGGVVQPGRSLRLSCAASGFTFRSYVMHWVRQAPGKGLEWVAVISHEGSGKYYADSVKGRFTISRDNSKNTLYLQMNSLRAEDTAVYYCALPRIAARRGGFGSWGQGTLVTVSS VL: NFMLTQPHSVSESPGKTVTISCTRSSGNIDYNYVQWYQQRPGSSPTTVIYEDNVRPSGVPDRFSGSIDSSSNSASLTISGLKTEDEADYYCQSYDSDNQRVVFGGGTKLTVL",1.8e+06 M⁻¹ s⁻¹,8.83e-05 s⁻¹
"SR-AB51-HuFab (antibody, V domains shown) VH: QVQLVESGGGVVQPGRSLRLSCAASGFTFRSYVMHWVRQAPGKGLEWVAVISHEGSGKYYADSVKGRFTISRDNSKNTLYLQMNSLRAEDTAVYYCARPRIAARRGGFGTWGQGTLVTVSS VL: NFMLTQPHSVSESPGKTVTISCTRSSGNIDYNYVQWYQQRPGSSPTTVIYEDNVRPSGVPDRFSGSIDSSSNSASLTISGLKTEDEADYYCQSYDYDNQAVVFGGGTKLTVL",2.55e+06 M⁻¹ s⁻¹,0.00015 s⁻¹
"SR-AB53-HuFab (antibody, V domains shown) VH: QVQLVESGGGVVQPGRSLRLSCAASGFTFRSYVMHWVRQAPGKGLEWVAVISHEGSGKYYADSVKGRFTISRDNSKNTLYLQMNSLRAEDTAVYYCARPRIAARRGGFGTWGQGTLVTVSS VL: NFMLTQPHSVSESPGKTVTISCTRSSGNIDYNYVQWYQQRPGSSPTTVIYEDNVRPSGVPDRFSGSIDSSSNSASLTISGLKTEDEADYYCQGYDWDTQGVVFGGGTKLTVL",1.82e+06 M⁻¹ s⁻¹,0.000128 s⁻¹
"SR-AB47-HuFab (antibody, V domains shown) VH: QVQLVESGGGVVQPGRSLRLSCAASGFTFRSYVMHWVRQAPGKGLEWVAVISHEGSGKYYADSVKGRFTISRDNSKNTLYLQMNSLRAEDTAVYYCARPRIAARRGGFGSWGQGTLVTVSS VL: NFMLTQPHSVSESPGKTVTISCTRSSGNIDYNYVQWYQQRPGSSPTTVIYEDNVRPSGVPDRFSGSIDSSSNSASLTISGLKTEDEADYYCQSYDYDNQAVVFGGGTKLTVL",1.84e+06 M⁻¹ s⁻¹,0.000136 s⁻¹

# Results, then the molecule that gave them:
ka,kd,Molecule
1.17e+06 M⁻¹ s⁻¹,0.000155 s⁻¹,"SR-AB61-HuFab (antibody, V domains shown) VH: QVQLVESGGGVVQPGRSLRLSCAASGFTFRSYVMHWVRQAPGKGLEWVAVISHEGSGKYYADSVKGRFTISRDNSKNTLYLQMNSLRAEDTAVYYCALPRIAARRGGFGTWGQGTLVTVSS VL: NFMLTQPHSVSESPGKTVTISCTRSSGNIDYNYVQWYQQRPGSSPTTVIYEDNVRPSGVPDRFSGSIDSSSNSASLTISGLKTEDEADYYCQGYDWDTQGVVFGGGTKLTVL"
2.58e+06 M⁻¹ s⁻¹,0.000126 s⁻¹,"SR-AB56-HuFab (antibody, V domains shown) VH: QVQLVESGGGVVQPGRSLRLSCAASGFTFRSYVMHWVRQAPGKGLEWVAVISHEGSGKYYADSVKGRFTISRDNSKNTLYLQMNSLRAEDTAVYYCALPRIAARRGGFGSWGQGTLVTVSS VL: NFMLTQPHSVSESPGKTVTISCTRSSGNIDYNYVQWYQQRPGSSPTTVIYEDNVRPSGVPDRFSGSIDSSSNSASLTISGLKTEDEADYYCQSYDYDTQGVVFGGGTKLTVL"
3.11e+06 M⁻¹ s⁻¹,0.000162 s⁻¹,"SR-AB58-HuFab (antibody, V domains shown) VH: QVQLVESGGGVVQPGRSLRLSCAASGFTFRSYVMHWVRQAPGKGLEWVAVISHEGSGKYYADSVKGRFTISRDNSKNTLYLQMNSLRAEDTAVYYCALPRIAARRGGFGTWGQGTLVTVSS VL: NFMLTQPHSVSESPGKTVTISCTRSSGNIDYNYVQWYQQRPGSSPTTVIYEDNVRPSGVPDRFSGSIDSSSNSASLTISGLKTEDEADYYCQSYDSDNQRVVFGGGTKLTVL"
2.35e+06 M⁻¹ s⁻¹,0.00012 s⁻¹,"SR-AB60-HuFab (antibody, V domains shown) VH: QVQLVESGGGVVQPGRSLRLSCAASGFTFRSYVMHWVRQAPGKGLEWVAVISHEGSGKYYADSVKGRFTISRDNSKNTLYLQMNSLRAEDTAVYYCALPRIAARRGGFGTWGQGTLVTVSS VL: NFMLTQPHSVSESPGKTVTISCTRSSGNIDYNYVQWYQQRPGSSPTTVIYEDNVRPSGVPDRFSGSIDSSSNSASLTISGLKTEDEADYYCQSYDYDTQGVVFGGGTKLTVL"
1.35e+06 M⁻¹ s⁻¹,0.000181 s⁻¹,"SR-AB57-HuFab (antibody, V domains shown) VH: QVQLVESGGGVVQPGRSLRLSCAASGFTFRSYVMHWVRQAPGKGLEWVAVISHEGSGKYYADSVKGRFTISRDNSKNTLYLQMNSLRAEDTAVYYCALPRIAARRGGFGSWGQGTLVTVSS VL: NFMLTQPHSVSESPGKTVTISCTRSSGNIDYNYVQWYQQRPGSSPTTVIYEDNVRPSGVPDRFSGSIDSSSNSASLTISGLKTEDEADYYCQGYDWDTQGVVFGGGTKLTVL"
2.55e+06 M⁻¹ s⁻¹,0.00013 s⁻¹,"SR-AB59-HuFab (antibody, V domains shown) VH: QVQLVESGGGVVQPGRSLRLSCAASGFTFRSYVMHWVRQAPGKGLEWVAVISHEGSGKYYADSVKGRFTISRDNSKNTLYLQMNSLRAEDTAVYYCALPRIAARRGGFGTWGQGTLVTVSS VL: NFMLTQPHSVSESPGKTVTISCTRSSGNIDYNYVQWYQQRPGSSPTTVIYEDNVRPSGVPDRFSGSIDSSSNSASLTISGLKTEDEADYYCQSYDYDNQAVVFGGGTKLTVL"
